Measured values reported in patent US20230357405A1 (published 2023).
Substitutions are numbered along the chain they refer to.

B1: Humabody® 1.80 (VHH)
VHH: EVQLVESGGGLVKPGGSLRLSCAASGFTFSDSSMTWMRQAPGKGLEWVSYISSGGGVKFYADSVKGRFTISRDNAKNSLYLQMNSLRAEDTAVYYCAREAPLRLGESPHDAFDISGQGTMVTVSS
notes: human VH single domain antibody
B2: Humabody® 1.92 (VHH)
VHH: B1 VHH with S32E
notes: as for B1
B3: Humabody® 1.1 (VHH)
VHH: B1 VHH with E1Q, S32Y, S33T, S53T, G56T, V57I, F59Y, A61T, E89D, S115W
notes: human VH single domain antibody; also called clone 1.1
B4: Humabody® 1.57 (VHH)
VHH: B1 VHH with E1Q, S32N, K58I, E89D
notes: as for B1

Assays:
[1] = target: T1, Strep tagged recombinant human PD-1 (human, UniProt Q15116 25-167, limits assumed); test: SPR Biacore T200, single cycle kinetics; Strep tagged PD-1 amine coupled to CM-5 (14 RU)
T1 construct: also called Strep tagged human PD-1; not shown: Strep tag
T1 sequence (Q15116 25-167 limits assumed): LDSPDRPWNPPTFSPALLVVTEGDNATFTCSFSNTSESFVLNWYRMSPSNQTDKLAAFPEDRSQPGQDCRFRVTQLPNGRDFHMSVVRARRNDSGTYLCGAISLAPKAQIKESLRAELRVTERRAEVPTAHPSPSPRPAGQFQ
Protocol: Single cycle kinetics assays were used to study the interaction between human PD-1 with Humabody® on a Biacore T200 instrument (GE Healthcare). Strep tagged recombinant human PD-1 was amine coupled to one flow cell of a CM-5 chip to create a low density surface (14 RU) using standard Biacore reagents. For the reference flow cell, a blank immobilisation was carried out. A five-point, three-fold dilution series of each Humabody® was made with a top concentration of 25 nM. The binding kinetics were followed by flowing the Humabody® over the chip surface in HBS EP+ buffer at a flow rate of 30 μl/min. The contact time for each of the association steps was 180 seconds and the dissociation step was 3300 seconds. The data was fitted to a 1:1 binding model after double reference subtraction using the Biacore T200 Evaluation software.

[2] = target: T2, cynomolgus PD-1 recombinant protein (cynomolgus); test: HTRF binding assay; 2 nM PD-1, anti human-Fc cryptate and anti His-D2
T2 construct: also called cyno PD-1; cynomolgus PD-1 (Acro Biosystems cat no. PD-1-05254)
Protocol: Purified VH were tested for their ability to bind to human PD-1 (R&D Systems cat no. 1086-PD), cynomolgus PD-1 (Acro Biosystems cat no. PD-1-05254) and mouse PD-1 (R&D Systems cat no. 1021-PD) in an HTRF Binding assay format. All reagents and serially diluted VH were prepared in assay buffer containing PBS, 0.1% BSA and 0.4M Potassium Fluoride. Samples or assay buffer (non-specific binding) were incubated with 2 nM human/cynomolgus or mouse PD-1, 1 nM Anti human-Fc Cryptate PAb (Cisbio cat. no. 61HFCKLB) and 30 nM anti His-D2 (CisBio cat no 61HISDLA) in black 384-shallow well assay plates for a minimum of 3 hours at room temperature. Time-resolved fluorescent emission at 620 nm and 665 nm was measured following excitation at 337 nm on the BMG PHERAstar plate reader. The HTRF ratio were calculated ((665 nm emission/620 nm emission)*10000) and the data corrected for (non-specific binding) to give the specific binding signal.

| Binder | kon [1] [M⁻¹ s⁻¹] | EC50 [2] [nM] |
| --- | --- | --- |
| B1 | 176000 | – |
| B2 | – | 4.1 |
| B3 | – | 6.3 |
| B4 | – | 0.75 |
